Test [1] concerns the target T1, human C5a receptor (human, UniProt P21730 1-350).
T1 construct: On human neutrophils, L1.2/hC5aR transfectants or neutrophils of hC5aR knock-in mice; also called hC5aR; C5aR1
T1 chain: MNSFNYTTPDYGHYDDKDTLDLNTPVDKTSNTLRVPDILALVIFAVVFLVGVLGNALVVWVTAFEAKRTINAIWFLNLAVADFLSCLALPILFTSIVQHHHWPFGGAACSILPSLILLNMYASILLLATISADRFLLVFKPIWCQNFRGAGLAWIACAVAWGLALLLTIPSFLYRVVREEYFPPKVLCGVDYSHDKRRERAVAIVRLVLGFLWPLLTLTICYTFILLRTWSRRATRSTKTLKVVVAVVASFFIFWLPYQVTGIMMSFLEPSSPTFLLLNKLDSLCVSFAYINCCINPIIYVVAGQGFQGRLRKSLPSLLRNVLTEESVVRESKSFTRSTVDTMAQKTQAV
As to the kind of experiment: 125I-C5a displacement, human neutrophils. How it is done:
The ability of humanized Abs to inhibit ¹²⁵I-labelled C5a binding to L1.2 cells transfected with hC5aR gene or human neutrophils was tested as described below. Recombinant human C5a was obtained from Sigma Chemical Co. (St. Louis, Mo.). ¹²⁵I-Bolton-Hunter-labelled complement C5a was purchased from NEN-Dupont (Boston, Mass.), with a specific activity of 2200 Ci/mM. Briefly, L1.2/hC5aR stable transfectants were grown for several days prior to an experiment then treated overnight with 5 mM butyric acid to stimulate hC5aR expression prior to the binding assay. Human neutrophils were purified from venous blood collected from healthy volunteers. Neutrophils were separated from other leukocytes by percoll density centrifugation followed by a red blood cell lysis step. Both cell types were washed once in PBS and resuspended in binding buffer (50 mM Hepes, pH 7.5, 1 mM CaCl₂, 5 mM MgCl₂, 0.5% BSA) at a concentration of 1×10⁷/ml. Aliquots of 40 μl (4×10⁵ cells) were dispensed into 96 well microtitre plates, followed by the addition of cold competitor (antibody or human C5a). Cells and cold competitor were incubated for 15 min at room temperature before-radiolabelled C5a was added to a final concentration of 0.4 nM. The final reaction volume was 120 μl. After 60 min incubation at room temperature, the cells were washed three times with 150 μl of binding buffer containing 0.15 M NaCl. Cell pellets were then counted on a TopCount Scintillation Counter (Packard). Samples were assayed in triplicate at each of 6-8 concentrations. Each antibody was tested in at least 3 separate assays. The number of counts in each sample was expressed as a percentage of the maximum ¹²⁵I-C5a binding observed in wells with no added cold competitor after subtraction of background.
Results of this analysis (the displacement curves) for each of the humanized antibodies compared to the mouse antibody 7F3 in human neutrophils and L1.2/hC5aR transfectants are given in FIGS. 11 and 12 respectively. […] These values were obtained using Graphpad Prism software fitting the data to the non-linear equation for one site competition.

Test [2] deals with T2, peptide PEP1 (residues 9-29 of human C5aR) (human).
T2 construct: Coated directly on a MaxiSorp plate; also called N-terminal 9-29 peptide
T2 peptide: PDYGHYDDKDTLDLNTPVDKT
The test can be described thus: ELISA, PEP1 coated at 10, 2 and 1 µg/ml. How it is done: A 384-well MaxiSorp plate (Nunc) was coated with a peptide corresponding to residues 9-29 of human C5aR (PEP1), at concentrations of 1-15 μg/ml in PBS/0.01% Tween-20 at 37° C. for 1.5 hours, then washed 3 times. The plate was blocked with 20 μl of blocking buffer (1% w/v BSA in PBS) per well for overnight at 4° C. The plate was washed 3 times with PBS/Tween buffer (0.05% v/v Tween-20 in PBS). 20 μl antibody (final concentration 5 μg/ml) was added to each well and the plate was incubated for 2 hours at 37° C. The plate was washed 3 times as above then 20 μl HRP-conjugated anti-human IgG kappa (1:8000 dilution in PBS/Tween 20) or HRP-conjugated anti-mouse IgG (1:7500 dilution) was added to each well. After a 2 hour incubation at room temperature the plate was washed 4 times (as above). The presence of peroxidase was detected by adding 20 μl of freshly prepared TMB Substrate reagent (BD Opt EIA) to each well and incubating at room temperature for 20 min. Finally after stopping the reaction with 20 μl 1M H₂SO₄ per well the plate was read at 450 nm (reference 620 nm) in a plate reader.
However, the anti-C5aR (CD88) mAb S5/1 (AbD Serotec, Cat No. MCA1283) which was raised against the human C5aR N-terminal peptide 1-31 did bind PEP1 at 5 μg/ml as expected.

Test [3] addresses T1, human C5a receptor. The test can be described thus: cell-based or functional assay.
Test [4] has as its target T3, peptide 1 (12 mer from the 2nd extracellular loop of human C5aR) (human, not fully specified).
T3 construct: worked out from 22 12 mers offset by one over 173-205; also called peptide no
T3 peptide: Biotin-SGSGLYRVVREEYFPP
As to the kind of experiment: peptide ELISA, biotin peptide on streptavidin plate. From the text:
A set of 22 overlapping peptides (12 mers), each offset by 1 residue from the next, spanning the second extracellular loop (3rd extracellular domain) of human C5aR was synthesised (Mimotopes, Melbourne). Each peptide was made with a biotin group and 4-amino acid linker (SGSG) at its N-terminus. One peptide synthesised, no. 23, was a 33 mer, representing the full length of the 2nd extracellular loop of hC5aR (residues 173-205 from SEQ ID NO:37), also had biotin-SGSG at the N-terminus.
The experiment was conducted by binding the peptides to a 384-well streptavidin-coated plate then incubating the antibodies with the peptides and detecting bound antibody with an anti-mouse IgG conjugated to horse radish peroxidase (HRP) as follows. Each peptide was dissolved in 200 μl of 60% DMSO to a concentration of 10 mg/ml. Peptides were further diluted 1:1000 to a working strength of 10 μg/ml with PBS/Tween 20/azide solution (0.1% w/v sodium azide in PBS/0.05% Tween 20).
A 384 well streptavidin-coated plate (Nunc) was blocked with 20 μl of blocking buffer (1% w/v BSA in PBS) per well. The plate was washed 4 times with PBS/Tween20 buffer (0.1% v/v Tween 20 in PBS). 20 μl of diluted peptide solution was transferred into a well and the plate incubated for 1 hour at room temperature. After washing the plate 4 times (as above) 20 μl antibody (0.5, 1, 1.25, 2.5 or 5 μg/ml) was added to the well and the plate was incubated for 1 hour at 20° C. The plate was washed 4 times as above then 20 μlHRP-conjugated anti-mouse IgG (1:5000 dilution in PBS/Tween 20) was added to each well. After a 1 hour incubation at room temperature the plate was washed 3 times (as above) then twice with PBS to remove traces of Tween. The presence of peroxidase was detected by adding 20 μl of freshly prepared TMB Substrate reagent (BD Opt EIA) to each well and incubating at room temperature for 20 min. Finally the plate was read at 650 nm/450 nm.
(In general: In an ELISA, binding on a coated surface is turned into a signal by an enzyme label.)

No end group written: not given here. *: point of attachment. Biotin = O=C1N[C@H]2[C@H](CS[C@H]2CCCCC(=O)*)N1

B1: humanized anti-C5aR antibody hAb-J (antibody, human IgG4 S228P, kappa)
light: DVVMTQSPLSLPVTLGEPASISCRSSQSLVHSNGNTYLHWYLQKPGQSPQLLIYKVSNRFSGVPDRFSGSGSGTDFTLKISRVEAEDVGVYFCSQSTLVPLTFGQGTKLEIKTVAAPSVFIFPPSDEQLKSGTASVVCLLNNFYPREAKVQWKVDNALQSGNSQESVTEQDSKDSTYSLSSTLTLSKADYEKHKVYACEVTHQGLSSPVTKSFNRGEC
heavy: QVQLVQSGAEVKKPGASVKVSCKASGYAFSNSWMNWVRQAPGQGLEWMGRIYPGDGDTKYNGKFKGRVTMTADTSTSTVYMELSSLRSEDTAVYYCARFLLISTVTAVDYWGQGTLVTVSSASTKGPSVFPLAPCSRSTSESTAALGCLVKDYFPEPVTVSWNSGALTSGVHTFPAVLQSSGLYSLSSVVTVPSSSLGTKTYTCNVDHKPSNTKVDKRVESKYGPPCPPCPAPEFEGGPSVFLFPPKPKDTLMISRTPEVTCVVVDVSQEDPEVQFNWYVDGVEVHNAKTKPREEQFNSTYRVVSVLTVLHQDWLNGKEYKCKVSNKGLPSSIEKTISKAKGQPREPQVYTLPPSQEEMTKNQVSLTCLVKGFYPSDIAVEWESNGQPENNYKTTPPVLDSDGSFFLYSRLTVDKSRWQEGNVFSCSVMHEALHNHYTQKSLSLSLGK
notes: also called antibody J
Turning to B1, a half-maximal effect with human C5a receptor [1] (EC50) was put at 4.11 nM. In test [2], the binding result was “no binding (tested: 5 µg/ml)”. For the same molecule, in the test with human C5a receptor [3], the “IC50, C5a-induced migration of hC5aR/L1.2 cells” value (shortened to “IC50, C5a-induced migration”) came out at 0.6 µg/mL; the “antibody concentration that completely inhibited hC5aR/L1.2 transfectant migration” value was 5 µg/mL; the “blocking of human neutrophil migration towards C5a at 5 µg/ml antibody” value turned out to be 82%.

B2: humanized anti-C5aR antibody hAb-Q (antibody, human IgG4 S228P, kappa)
light: DVVMTQSPLSLPVTLGEPASISCRSSQSLVHSNGNTYLHWYLQKPGQSPQLLIYKVSNRFSGVPDRFSGSGSGTDFTLKISRVEAEDVGVYFCSQSTLVPLTFGQGTKLEIKRTVAAPSVFIFPPSDEQLKSGTASVVCLLNNFYPREAKVQWKVDNALQSGNSQESVTEQDSKDSTYSLSSTLTLSKADYEKHKVYACEVTHQGLSSPVTKSFNRGEC
heavy: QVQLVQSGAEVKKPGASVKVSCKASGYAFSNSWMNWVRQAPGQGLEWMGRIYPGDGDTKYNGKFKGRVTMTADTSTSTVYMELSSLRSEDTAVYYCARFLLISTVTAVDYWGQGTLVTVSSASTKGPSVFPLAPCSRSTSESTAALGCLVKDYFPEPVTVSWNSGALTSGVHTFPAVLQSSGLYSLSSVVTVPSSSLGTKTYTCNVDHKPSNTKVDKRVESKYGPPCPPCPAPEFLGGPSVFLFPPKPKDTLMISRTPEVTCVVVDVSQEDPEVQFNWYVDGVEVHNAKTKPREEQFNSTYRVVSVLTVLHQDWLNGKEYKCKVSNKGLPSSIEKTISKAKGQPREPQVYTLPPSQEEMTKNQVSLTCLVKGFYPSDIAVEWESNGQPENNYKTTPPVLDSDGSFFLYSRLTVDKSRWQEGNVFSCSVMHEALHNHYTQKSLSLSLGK
notes: IgG4 with the Ser228Pro mutation; also called antibody Q; anti-C5aR ab
For the molecule B2, the EC50 (in general, the concentration needed to bring the measured effect to its halfway point) in the test with human C5a receptor [1] was 3.5 nM. In addition, the binding result in test [2] is recorded as “no binding (tested: 5 µg/ml)”. Further, in the test with human C5a receptor [3], the “EC50 for inhibition of C5a-induced human neutrophil migration” value was 0.03 µg/mL; the “IC50, C5a-induced migration” value came out at 0.7 µg/mL; the “IC50, prevention of C5a-induced CD11b up-regulation on neutrophils in whole human blood (100 nM C5a)” value is about 10.7 µg/mL; the “IC50, prevention of C5a-induced loss of CD62L on neutrophils in whole human blood (100 nM C5a)” value is about 5.4 µg/mL. In addition, in the test with human C5a receptor [3], the “antibody concentration that completely inhibited hC5aR/L1.2 transfectant migration” value was 5 µg/mL. Further, in test [4], the binding result is on record as “binds”.

B3: mouse anti-C5aR monoclonal antibody 7F3 (antibody, V domains shown)
VH: QVQLQQSGPELVKPGASVKISCKASGYAFSNSWMNWVKQRPGKGLEWIGRIYPGDGDTKYNGKFKGKATLTADKSSSTAYMQLSSLTSEDSAVYFCARFLLISTVTAVDYWGQGTTLTVSS
VL: DVVMTQSPLSLPVSLGNQASISCRSSQSLVHSNGNTYLHWYLQKPGQSPKLLIYKVSNRFSGVPDRFSGSGSGTDFSLKISRVEAEDLGVYFCSQSTLVPLTFGAGTKLELK
notes: Mouse monoclonal from hybridoma ECACC 00110609; also called m7F3; mouse 7F3
Molecule B3 had a concentration giving a half-maximal response (EC50) in the test with human C5a receptor [1] of 0.54 nM. Besides, in the test with human C5a receptor [3], the “IC50, C5a-induced migration” value amounted to 0.5 µg/mL; the “antibody concentration that completely blocked migration of human neutrophils induced by 10 nM C5a” value turned out to be 10 µg/mL; the “antibody concentration that completely inhibited hC5aR/L1.2 transfectant migration” value turned out to be 5 µg/mL; the “blocking of human neutrophil migration towards C5a at 5 µg/ml antibody” value was determined as 97%. Moreover, the binding result in test [4] is on record as “binds”.

For the origin of these results see patent US20110190477A1 (G2 INFLAMMATION, published 2011).
